Assay results published in patent US20220251236A1 (Boehringer Ingelheim, published 2022).

Legend:
[1] = molecular target: T1, trypsin inhibitor from glycine max soybean (Glycine max (soybean)); assay: SPR (Biacore T200), trypsin inhibitor on CM5 chip, sample at 1 µM
T1 construct: also called Tryp
From the text: To prepare the surface for the non-specific binding experiment, chicken egg white lysozyme and trypsin inhibitor from glycine max soybean were coupled manually to a series S CM5 chip with the surface density of 3000-5000 RU using the amine coupling kit according to the manufacture instructions.

[2] = molecular target: T2, Human CD3 E+G HuFc-6xHis (human); assay: SPR (ProteOn XPR36), HuCD3E_HuCD3G-Fc amine-coupled, bispecific as analyte, Example 4B
T2 construct: also called hu CD3εγ-Fc
T2 sequence (chain, as listed by the source limits assumed): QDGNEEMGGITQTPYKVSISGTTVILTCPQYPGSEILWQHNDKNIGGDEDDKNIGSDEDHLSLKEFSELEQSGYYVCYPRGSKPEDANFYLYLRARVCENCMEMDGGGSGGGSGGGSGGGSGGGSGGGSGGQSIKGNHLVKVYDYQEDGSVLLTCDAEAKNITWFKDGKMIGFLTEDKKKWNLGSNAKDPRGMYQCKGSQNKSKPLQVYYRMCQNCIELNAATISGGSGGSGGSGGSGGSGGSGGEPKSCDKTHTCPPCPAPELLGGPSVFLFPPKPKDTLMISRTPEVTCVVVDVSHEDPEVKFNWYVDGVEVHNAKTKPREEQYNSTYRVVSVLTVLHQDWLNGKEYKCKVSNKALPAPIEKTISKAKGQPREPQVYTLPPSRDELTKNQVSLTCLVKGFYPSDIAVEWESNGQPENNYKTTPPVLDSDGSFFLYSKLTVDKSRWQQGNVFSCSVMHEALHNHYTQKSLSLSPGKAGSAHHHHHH
How it was run: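 SPR kinetics with the bispecific constructs flowed as analyte over a directly amine-coupled (pH 4.5 acetate) human CD3εγ-Fc surface. Association runs 600 s and dissociation 1800 s, at 30 μl/min in PBS-T-EDTA.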

[3] = molecular target: T3, human DLL3 (endogenous, on SCLC cell lines NCI-H82 and SHP77 and in SCLC tissue) (human, UniProt Q9NYJ7 27-618); assay: flow cytometry titration on SHP77 cells, PE anti-human secondary, x-fold over background
T3 construct: whole, on cells; also called SCLC cell lines expressing DLL3
T3 sequence (looked up): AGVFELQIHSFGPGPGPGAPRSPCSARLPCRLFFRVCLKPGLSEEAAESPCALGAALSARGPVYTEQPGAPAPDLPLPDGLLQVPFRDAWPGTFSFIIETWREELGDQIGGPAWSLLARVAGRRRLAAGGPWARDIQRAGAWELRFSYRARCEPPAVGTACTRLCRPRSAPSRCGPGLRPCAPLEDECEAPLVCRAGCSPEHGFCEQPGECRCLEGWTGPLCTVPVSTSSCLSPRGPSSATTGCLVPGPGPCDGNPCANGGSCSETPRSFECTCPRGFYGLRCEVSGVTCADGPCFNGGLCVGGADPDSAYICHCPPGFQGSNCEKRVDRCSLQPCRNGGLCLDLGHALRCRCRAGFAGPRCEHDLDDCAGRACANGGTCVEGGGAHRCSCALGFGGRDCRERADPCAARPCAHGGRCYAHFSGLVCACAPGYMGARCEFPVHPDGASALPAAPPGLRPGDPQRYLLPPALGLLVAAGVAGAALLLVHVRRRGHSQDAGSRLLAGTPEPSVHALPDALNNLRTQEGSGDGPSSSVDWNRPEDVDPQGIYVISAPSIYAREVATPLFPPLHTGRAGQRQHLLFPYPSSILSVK
From the text: Cells (T cells or human SCLC cells) were stained with increasing concentrations of two-step purified DLL3/CD3 binding proteins with increasing concentrations in FACS buffer (PBS/0.5% BSA/0.05% sodium azide). Bound molecules were detected with PE-conjugated anti-human secondary antibody (Sigma-Aldrich, #P8047).

[4] = molecular target: T4, EGF4+5; assay: flow cytometry on HEK293 cells expressing the DLL3 subdomain construct, PE anti-human secondary, control: secondary antibody only
T4 construct: also called Hu DLL3 EGF4+5 on HEK293 cells
T4 membrane-anchored DLL3 subdomain construct: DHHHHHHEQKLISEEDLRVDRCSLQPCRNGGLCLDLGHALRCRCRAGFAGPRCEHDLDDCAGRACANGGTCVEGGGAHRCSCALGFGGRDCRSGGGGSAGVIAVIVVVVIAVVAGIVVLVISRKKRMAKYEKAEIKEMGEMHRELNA
How it was run: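 Binders tested on HEK293 cells displaying the DLL3 subdomain construct; bound molecules detected by flow cytometry using PE-conjugated anti-human secondary antibody. Negative control: cells with secondary antibody only.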

T1 sequence (P01070 25-205): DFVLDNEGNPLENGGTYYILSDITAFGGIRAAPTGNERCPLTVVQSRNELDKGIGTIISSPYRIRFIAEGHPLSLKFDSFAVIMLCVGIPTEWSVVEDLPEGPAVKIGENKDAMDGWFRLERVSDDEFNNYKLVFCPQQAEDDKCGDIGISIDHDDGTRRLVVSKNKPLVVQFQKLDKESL

B1: DLL3#17/CD3#1 (bispecific antibody, human IgG1, kappa, lambda, L234A L235A)
chain 1: DIQMTQSPASLAASVGETVTITCRASENIYYSLAWYQQKQGKSPQLLIYNTNSLEDGVPSRFSGSGSGTQYSMKINSMQPEDTATYFCKQAYDFPLTFGAGTKLELKRTVAAPSVFIFPPSDEQLKSGTASVVCLLNNFYPREAKVQWKVDNALQSGNSQESVTEQDSKDSTYSLSSTLTLSKADYEKHKVYACEVTHQGLSSPVTKSFNRGECGGGGSEGKSSGSGSESKSTEGKSSGSGSESKSTGGGGSQIQLQQSGPEVVKPGASVKISCKASGYTFISYYIHWVKQRPGQGLEWIGWIYPGDGSTNNNEKFKGKTTLTADKSSSTAYMLLSSLTSEDSAVYFCARGEGNAMDDWGQGTSVTVSSASTKGPSVFPLAPSSKSTSGGTAALGCLVKDYFPEPVTVSWNSGALTSGVHTFPAVLQSSGLYSLSSVVTVPSSSLGTQTYICNVNHKPSNTKVDKRVEPKSCDKTHTCPPCPAPEAAGGPSVFLFPPKPKDTLMISRTPEVTCVVVDVSHEDPEVKFNWYVDGVEVHNAKTKPREEQYNSTYRVVSVLTVLHQDWLNGKEYKCKVSNKALPAPIEKTISKAKGQPREPQVYTLPPSREEMTKNQVSLWCLVKGFYPSDIAVEWESNGQPENNYKTTPPVLDSDGSFFLYSKLTVDKSRWQQGNVFSCSVMHEALHNHYTQKSLSLSPG
chain 2: EAVVTQEPSLTVSPGGTVTLTCRSSTGAVTTSNYANWVQEKPGQLPRGLIGGTNKRAPWVPARFSGSLLGGKAALTLSGAQPEDEAEYFCALWYSNLWVFGGGTKLTVLGQPKAAPSVTLFPPSSEELQANKATLVCLISDFYPGAVKVAWKADGSPVNTGVETTTPSKQSNNKYAASSYLSLTPEQWKSHRSYSCQVTHEGSTVEKTVAPAECSGGGGSEGKSSGSGSESKSTEGKSSGSGSESKSTGGGGSEVQLVESGGGLVQPGGSLKLSCAASGFTFNTYAMNWVRQAPGKGLEWVARIRSKYNNYATYYADSVKDRFTISRDDSKNTAYLQMNNLKTEDTAVYYCVRHGNFGNSYVSWFAYWGQGTLVTVSAASTKGPSVFPLAPSSKSTSGGTAALGCLVKDYFPEPVTVSWNSGALTSGVHTFPAVLQSSGLYSLSSVVTVPSSSLGTQTYICNVNHKPSNTKVDKRVEPKSCDKTHTCPPCPAPEAAGGPSVFLFPPKPKDTLMISRTPEVTCVVVDVSHEDPEVKFNWYVDGVEVHNAKTKPREEQYNSTYRVVSVLTVLHQDWLNGKEYKCKVSNKALPAPIEKTISKAKGQPREPQVYTLPPSREEMTKNQVSLSCAVKGFYPSDIAVEWESNGQPENNYKTTPPVLDSDGSFFLVSKLTVDKSRWQQGNVFSCSVMHEALHNRFTQKSLSLSPG
notes: Heterodimer of one DLL3 chain and one CD3 chain (scFab-Fc, knob-in-hole)
- Non-specific binding (RU) [1]: 8 RU
- Kd [2]: 2 nM
- EC50 (read off the curve) [3]: ~2 nM
- binding result [4]: no binding (tested: 1.6 nM)

B2: DLL3#18/CD3#1 (bispecific antibody, human IgG1, kappa, lambda, L234A L235A)
chain 1: DIQMTQSPASLAASVGETVTITCRASENIYYSLAWYQQKQGKSPQLLIYNANSLEDGVPSRFSGSGSGTQYSMKINNMQPEDTATYFCKQAYDVPLTFGAGTKLELKRTVAAPSVFIFPPSDEQLKSGTASVVCLLNNFYPREAKVQWKVDNALQSGNSQESVTEQDSKDSTYSLSSTLTLSKADYEKHKVYACEVTHQGLSSPVTKSFNRGECGGGGSEGKSSGSGSESKSTEGKSSGSGSESKSTGGGGSQVQLQQSGPDLVKPGASVKMSCEASGYTFTAYFIHWVKQKPGQGLEWIGYIDPFNDDTNYNVKFKGKATLTSDTSSSIAYMELSSLTSEDSSFYYCARGTSATLDYWGHGTTLTVSSASTKGPSVFPLAPSSKSTSGGTAALGCLVKDYFPEPVTVSWNSGALTSGVHTFPAVLQSSGLYSLSSVVTVPSSSLGTQTYICNVNHKPSNTKVDKRVEPKSCDKTHTCPPCPAPEAAGGPSVFLFPPKPKDTLMISRTPEVTCVVVDVSHEDPEVKFNWYVDGVEVHNAKTKPREEQYNSTYRVVSVLTVLHQDWLNGKEYKCKVSNKALPAPIEKTISKAKGQPREPQVYTLPPSREEMTKNQVSLWCLVKGFYPSDIAVEWESNGQPENNYKTTPPVLDSDGSFFLYSKLTVDKSRWQQGNVFSCSVMHEALHNHYTQKSLSLSPG
chain 2: EAVVTQEPSLTVSPGGTVTLTCRSSTGAVTTSNYANWVQEKPGQLPRGLIGGTNKRAPWVPARFSGSLLGGKAALTLSGAQPEDEAEYFCALWYSNLWVFGGGTKLTVLGQPKAAPSVTLFPPSSEELQANKATLVCLISDFYPGAVKVAWKADGSPVNTGVETTTPSKQSNNKYAASSYLSLTPEQWKSHRSYSCQVTHEGSTVEKTVAPAECSGGGGSEGKSSGSGSESKSTEGKSSGSGSESKSTGGGGSEVQLVESGGGLVQPGGSLKLSCAASGFTFNTYAMNWVRQAPGKGLEWVARIRSKYNNYATYYADSVKDRFTISRDDSKNTAYLQMNNLKTEDTAVYYCVRHGNFGNSYVSWFAYWGQGTLVTVSAASTKGPSVFPLAPSSKSTSGGTAALGCLVKDYFPEPVTVSWNSGALTSGVHTFPAVLQSSGLYSLSSVVTVPSSSLGTQTYICNVNHKPSNTKVDKRVEPKSCDKTHTCPPCPAPEAAGGPSVFLFPPKPKDTLMISRTPEVTCVVVDVSHEDPEVKFNWYVDGVEVHNAKTKPREEQYNSTYRVVSVLTVLHQDWLNGKEYKCKVSNKALPAPIEKTISKAKGQPREPQVYTLPPSREEMTKNQVSLSCAVKGFYPSDIAVEWESNGQPENNYKTTPPVLDSDGSFFLVSKLTVDKSRWQQGNVFSCSVMHEALHNRFTQKSLSLSPG
notes: as for B1
- Non-specific binding (RU) [1]: 81 RU
- Kd [2]: 3 nM
- EC50 (read off the curve) [3]: ~2 nM
- binding result [4]: no binding (tested: 1.6 nM)

B3: DLL3#13/CD3#1 (bispecific antibody, human IgG1, kappa, lambda, L234A L235A)
chain 1: DVLMTQTPLSLPVSLGDQAAISCRSSQSIVHSNGNTYLEWYLQKPGQSPKVLIYKVSNRFSGVPDRFSGSGSGTDFTLKISRVEAEDLGVYYCFQGSHVPYTFGGGTKLEIKRTVAAPSVFIFPPSDEQLKSGTASVVCLLNNFYPREAKVQWKVDNALQSGNSQESVTEQDSKDSTYSLSSTLTLSKADYEKHKVYACEVTHQGLSSPVTKSFNRGECGGGGSEGKSSGSGSESKSTEGKSSGSGSESKSTGGGGSQIQLVQSGPELKKPGETVKISCKASGYTFTNYGVTWVKQAPGKGLKWMGWINTYSGAPTYADDFNGRFALSLETSASTAYLQINNLKNEDTATYFCARLDDYDLYYFDYWGQGTALTVSSASTKGPSVFPLAPSSKSTSGGTAALGCLVKDYFPEPVTVSWNSGALTSGVHTFPAVLQSSGLYSLSSVVTVPSSSLGTQTYICNVNHKPSNTKVDKRVEPKSCDKTHTCPPCPAPEAAGGPSVFLFPPKPKDTLMISRTPEVTCVVVDVSHEDPEVKFNWYVDGVEVHNAKTKPREEQYNSTYRVVSVLTVLHQDWLNGKEYKCKVSNKALPAPIEKTISKAKGQPREPQVYTLPPSREEMTKNQVSLWCLVKGFYPSDIAVEWESNGQPENNYKTTPPVLDSDGSFFLYSKLTVDKSRWQQGNVFSCSVMHEALHNHYTQKSLSLSPG
chain 2: EAVVTQEPSLTVSPGGTVTLTCRSSTGAVTTSNYANWVQEKPGQLPRGLIGGTNKRAPWVPARFSGSLLGGKAALTLSGAQPEDEAEYFCALWYSNLWVFGGGTKLTVLGQPKAAPSVTLFPPSSEELQANKATLVCLISDFYPGAVKVAWKADGSPVNTGVETTTPSKQSNNKYAASSYLSLTPEQWKSHRSYSCQVTHEGSTVEKTVAPAECSGGGGSEGKSSGSGSESKSTEGKSSGSGSESKSTGGGGSEVQLVESGGGLVQPGGSLKLSCAASGFTFNTYAMNWVRQAPGKGLEWVARIRSKYNNYATYYADSVKDRFTISRDDSKNTAYLQMNNLKTEDTAVYYCVRHGNFGNSYVSWFAYWGQGTLVTVSAASTKGPSVFPLAPSSKSTSGGTAALGCLVKDYFPEPVTVSWNSGALTSGVHTFPAVLQSSGLYSLSSVVTVPSSSLGTQTYICNVNHKPSNTKVDKRVEPKSCDKTHTCPPCPAPEAAGGPSVFLFPPKPKDTLMISRTPEVTCVVVDVSHEDPEVKFNWYVDGVEVHNAKTKPREEQYNSTYRVVSVLTVLHQDWLNGKEYKCKVSNKALPAPIEKTISKAKGQPREPQVYTLPPSREEMTKNQVSLSCAVKGFYPSDIAVEWESNGQPENNYKTTPPVLDSDGSFFLVSKLTVDKSRWQQGNVFSCSVMHEALHNRFTQKSLSLSPG
notes: as for B1
- Non-specific binding (RU) [1]: 3 RU
- Kd [2]: 3 nM
- EC50 (read off the curve) [3]: ~2 nM
- binding result [4]: no binding (tested: 1.6 nM)
